Patent US12721795B2, “Personal dental care product for preventing demineralisation” (CREDENTIS AG, priority 2019, dated 2026)
“Also recorded” adds a separate entry of the source.

Experiments:
[1] = cited from earlier work; for pH at which the peptide starts to undergo self-assembly: in solution
[2] = Determination of fibres eluting from matrix (TEM of artificially chewed toffee-saliva); type: physicochemical; details: toffee with assembled P11-4 (35 mg/ml), 3 mL artificial saliva, artificial chew 5 min
Method: Sample: • Place 1 toffee with or without assembled P11-4 (35 mg/ml) in artificial saliva 3 mL (cf. Example 2) • Artificial chew for 5 min in artificial mastication equipment. • Remove supernatant (saliva) Method TEM • Dilute sample (10 mg/mL) with H2O at a ratio of 1:63 • Place 1 μL of control solution on TEM-grid Sample • Place 20 μL of water on a parafilm • Place gently the TEM Grid with dark site facing upwards on the parafilm, close to the drop • Application of 10 μL sample on TEM carbon coated grids (hexagonal) • 10 min incubation • Remove unbound sample with a paper tissue • Put the grid into 3% Uranylacetate solution 20 ul • 40 sec incubation • Remove unbound Uranylacetate with a paper tissue • Wash the grid 2 times with distilled water • pipet 5 μL droplet on top of the grid and remove it • Dry it for 20 min at RT • Introduce sample into sample holder for TEM • Analyse @ 50 kV, Vacuum at least 9*10-6 hPa

| Substance | pH at which the peptide starts to undergo self-assembly [1] | assembly state ([1]; ionic strength corresponding to 150 mM NaCl, neutral pH (Carrick et al., 2007)) | assembled fibres of peptide in artificial saliva after mastication (TEM) [2] |
| --- | --- | --- | --- |
| QQRFEWEFEQQ (self-assembling peptide P11-4) | about 7.5 | assembled | distinct fibre bundle; also recorded: maintains its assembled form |
| terminally modified P11-4: peptide P11-4 that is N-terminally acetylated and C-terminally amidated with a NH2-group (Ac-QQRFEWEFEQQ-NH2) | about 7.5 |  |  |
